# Publication PMC9871958 (Protein & Cell, 2022)
# B1: 1F (antibody, V domains shown)
# VH: EVQLVESGPGLVKPSETLSLTCTVSGGSISSSSYYWGWIRQPPGKGLEWIGSIYYRGSTYYNPSLKSRVTISVDTSKNQFSLKLSSVTAADTAVYYCARHVRSAYYYGSGSYRDEGNWFDPWGQGTLVTVSS
# VL: QSVLTQPPSVSGAPGQRVTISCTGTRSNIGAGHDVHWYQQLPGTAPKLLIYGNNNRPSGVPDRFSGAKSGTSASLAITGLQAEDEADYYCQSYDRTLTSYVFGTGTKVTVL
# Assays:
# [1] = molecular target: T1, SARS-CoV-2 RBD protein (SARS-CoV-2, UniProt P0DTC2); experiment: SPR; conditions: both partners purified
# [2] = molecular target: T1, SARS-CoV-2 RBD protein; experiment: cell-based or functional assay
binder,measurement,setting,value
B1,Kd,[1],77 pM
same,IC50 of neutralisation of authentic SARS-CoV-2 virus (1F blocks RBD-ACE2),[2],0.018 µg/mL
